Usually Kd stands for the free concentration of one partner at which half of the binding sites on the other are occupied at equilibrium, for simple one-to-one binding. Read a high Kd as lower affinity.

What all share (experiment): EMSA
In general terms: In EMSA bound probe runs differently from free probe, usually more slowly.

Series [1] concerns EutV full length (Enterococcus faecalis (V583?)). The following applies: unphosphorylated; 10 mM Mg2+; 50 mM Hepes pH 7.5, 150 mM NaCl, 10 mM MgCl2, 2.5 ng/ul yeast tRNA, ~2 fmol RNA in 10 ul, 30 min at 25 C; EMSA on 5% native TBE gel, or DRaCALA on ….
Series [2] deals with EutV ANTARcc (Enterococcus faecalis (V583?)). The following applies: 10 mM Mg2+; 50 mM Hepes pH 7.5, 150 mM NaCl, 10 mM MgCl2, 2.5 ng/ul yeast tRNA, ~2 fmol RNA in 10 ul, 30 min at 25 C; EMSA on 5% native TBE gel, or DRaCALA on ….
The test system of series [3] is EutV ANTAR (Enterococcus faecalis (V583?)). Conditions: 10 mM Mg2+; 50 mM Hepes pH 7.5, 150 mM NaCl, 10 mM MgCl2, 2.5 ng/ul yeast tRNA, ~2 fmol RNA in 10 ul, 30 min at 25 C; EMSA on 5% native TBE gel, or DRaCALA on ….

Consider “GGGCAAAGAAUCAGAAACACAAUGGCGUGUUUUAACAAUCGGCAAAGGAGCCCAAGACUAAGUACGUG [eutP 5' leader dual hairpin RNA, wild type]”, for which the Kd in series [1] was 10 µM; in series [2], 700 nM. Moreover, in series [3], the binding signal (fold weaker than ANTARcc) came out at 100.

Values taken from publication PMC3369931.
